This series is described as follows: total protein half-life in vivo (active degradation + dilution); higher = more stable protein.
Where [1] appears, read: E. coli NCM3722 delta-clpP delta-lon delta-hslV, growth: N-lim chemostat, doubling time 6 h.
[2] abbreviates: E. coli NCM3722 delta-clpP, growth: N-lim chemostat, doubling time 6 h.
The mark [3] stands for this setting: E. coli NCM3722 delta-hslV, growth: N-lim chemostat, doubling time 6 h.
Where [4] appears, read: E. coli NCM3722 delta-lon, growth: N-lim chemostat, doubling time 6 h.
Setting [5] is: E. coli NCM3722 delta-smpB, growth: N-lim chemostat, doubling time 6 h.
Where [6] appears, read: wild type E. coli NCM3722, growth: C-lim chemostat, doubling time 3 h.
Setting [7] is: wild type E. coli NCM3722, growth: C-lim chemostat, doubling time 6 h.
Setting [8] is: wild type E. coli NCM3722, growth: C-lim chemostat, doubling time 12 h.
Where [9] appears, read: wild type E. coli NCM3722, growth: N-lim chemostat, doubling time 6 h.
Setting [10] is: wild type E. coli NCM3722, growth: N-lim chemostat, doubling time 12 h.
Where [11] appears, read: wild type E. coli NCM3722, growth: P-lim chemostat, doubling time 6 h.
Where [12] appears, read: wild type E. coli NCM3722, growth: P-lim chemostat, doubling time 12 h.

± gives the standard deviation of the averaged measurements.

For “MKNVGFIGWRGMVGSVLMQRMVEERDFDAIRPVFFSTSQLGQAAPSFGGTTGTLQDAFDLEALKALDIIVTCQGGDYTNEIYPKLRESGWQGYWIDAASSLRMKDDAIIILDPVNQDVITDGLNNGIRTFVGGNCTVSLMLMSLGGLFANDLVDWVSVATYQAASGGGARHMRELLTQMGHLYGHVADELATPSSAILDIERKVTTLTRSGELPVDNFGVPLAGSLIPWIDKQLDNGQSREEWKGQAETNKILNTSSVIPVDGLCVRVGALRCHSQAFTIKLKKDVSIPTVEELLAAHNPWAKVVPNDREITMRELTPAAVTGTLTTPVGRLRKLNMGPEFLSAFTVGDQLLWGAAEPLRRMLRQLA [P0A9Q9]”, the “total protein half-life in vivo” value is, setting by setting: under setting [1], 4.6 ± 1.1 h; under setting [2], 3.96 ± 0.59 h; under setting [3], 3.75 ± 0.11 h; under setting [4], 4.54 ± 0.57 h; under setting [5], 3.49 ± 0.27 h; under setting [6], 2.97 ± 0.19 h. In addition, the “total protein half-life in vivo” value amounted to 5.55 ± 0.092 h under setting [7]; 9.4 ± 0.89 h under setting [8]; 3.76 ± 0.22 h under setting [9]; 5.831 ± 0.054 h under setting [10]; 5.76 ± 0.3 h under setting [11]; 11 ± 1.3 h under setting [12].
On to “MLSRRGHRLSRFRKNKRRLRERLRQRIFFRDKVVPEAMEKPRVLVLTGAGISAESGIRTFRAADGLWEEHRVEDVATPEGFDRDPELVQAFYNARRRQLQQPEIQPNAAHLALAKLQDALGDRFLLVTQNIDNLHERAGNTNVIHMHGELLKVRCSQSGQVLDWTGDVTPEDKCHCCQFPAPLRPHVVWFGEMPLGMDEIYMALSMADIFIAIGTSGHVYPAAGFVHEAKLHGAHTVELNLEPSQVGNEFAEKYYGPASQVVPEFVEKLLKGLKAGSIA”, for which the “total protein half-life in vivo” value came out at 5.1 ± 0.51 h under setting [1]; 4.14 ± 0.054 h under setting [2]; 4.03 ± 0.65 h under setting [3]; 5.77 ± 0.77 h under setting [4]; 4.15 ± 0.36 h under setting [5]; 2.64 ± 0.21 h under setting [6]. For the same sequence, the “total protein half-life in vivo” value is, setting by setting: under setting [7], 4.79 ± 0.29 h; under setting [8], 10.2 ± 0.35 h; under setting [9], 4.37 ± 0.24 h; under setting [10], 7.71 ± 0.99 h; under setting [11], 5.56 ± 0.39 h; under setting [12], 10.5 ± 1.2 h.
In the case of “MSAGKLPEGWVIAPVSTVTTLIRGVTYKKEQAINYLKDDYLPLIRANNIQNGKFDTTDLVFVPKNLVKESQKISPEDIVIAMSSGSKSVVGKSAHQHLPFECSFGAFCGVLRPEKLIFSGFIAHFTKSSLYRNKISSLSAGANINNIKPASFDLINIPIPPLAEQKIIAEKLDTLLAQVDSTKARFEQIPQILKRFRQAVLGGAVNGKLTEKWRNFEPQHSVFKKLNFESILTELRNGLSSKPNESGVGHPILRISSVRAGHVDQNDIRFLECSESELNRHKLQDGDLLFTRYNGSLEFVGVCGLLKKLQHQNLLYPDKLIRARLTKDALPEYIEIFFSSPSARNAMMNCVKTTSGQKGISGKDIKSQVVLLPPVKEQAEIVRRVEQLFAYADTIEKQVNNALARVNNLTQSILAKAFRGELTAQWRAENPDLISGENSAAALLEKIKAERAASGGKKASRKKS”, the “total protein half-life in vivo” value is, setting by setting: under setting [1], 5.47 ± 0.81 h; under setting [2], 5.86 ± 0.12 h; under setting [3], 5.48 ± 0.098 h; under setting [4], 6.44 ± 0.56 h; under setting [5], 5.68 ± 0.34 h; under setting [6], 3.08 ± 0.36 h. Further, the “total protein half-life in vivo” value is, setting by setting: under setting [7], 6.03 ± 0.34 h; under setting [8], 10.9 ± 0.68 h; under setting [9], 5.84 ± 0.44 h; under setting [10], 10.7 ± 0.57 h; under setting [11], 5.46 ± 0.33 h; under setting [12], 10.9 ± 0.15 h.
As to “MAFKFKTFAAVGALIGSLALVGCGQDEKDPNHIKVGVIVGAEQQVAEVAQKVAKDKYGLDVELVTFNDYVLPNEALSKGDIDANAFQHKPYLDQQLKDRGYKLVAVGNTFVYPIAGYSKKIKSLDELQDGSQVAVPNDPTNLGRSLLLLQKVGLIKLKDGVGLLPTVLDVVENPKNLKIVELEAPQLPRSLDDAQIALAVINTTYASQIGLTPAKDGIFVEDKESPYVNLIVTREDNKDAENVKKFVQAYQSDEVYEAANKVFNGGAVKGW”, the “total protein half-life in vivo” value runs as follows: under setting [1], 5.86 ± 0.32 h; under setting [2], 6.85 ± 0.96 h; under setting [3], 6.15 ± 0.22 h; under setting [4], 6.95 ± 0.8 h; under setting [5], 5.84 ± 0.36 h; under setting [6], 3.04 ± 0.097 h. The “total protein half-life in vivo” value under setting [7] came out at 6.52 ± 0.23 h; the “total protein half-life in vivo” value under setting [8] was determined as 11.6 ± 0.54 h; the “total protein half-life in vivo” value under setting [9] stood at 5.85 ± 0.088 h; the “total protein half-life in vivo” value under setting [10] worked out at 12.69 ± 0.014 h; the “total protein half-life in vivo” value under setting [11] is 5.99 ± 0.093 h; the “total protein half-life in vivo” value under setting [12] amounted to 13 ± 0.76 h.
For “MLKKILLLALLPAIAFAEELPAPVKAIEKQGITIIKTFDAPGGMKGYLGKYQDMGVTIYLTPDGKHAISGYMYNEKGENLSNTLIEKEIYAPAGREMWQRMEQSHWLLDGKKDAPVIVYVFADPFCPYCKQFWQQARPWVDSGKVQLRTLLVGVIKPESPATAAAILASKDPAKTWQQYEASGGKLKLNVPANVSTEQMKVLSDNEKLMDDLGANVTPAIYYMSKENTLQQAVGLPDQKTLNIIMGNK”, the “total protein half-life in vivo” value under setting [1] stood at 5.17 ± 0.63 h; the “total protein half-life in vivo” value under setting [2] came out at 5.5 ± 0.14 h; the “total protein half-life in vivo” value under setting [3] was 6.05 ± 0.24 h; the “total protein half-life in vivo” value under setting [4] worked out at 6.69 ± 1 h; the “total protein half-life in vivo” value under setting [5] was found to be 5.98 ± 0.33 h; the “total protein half-life in vivo” value under setting [6] stood at 3.016 ± 0.006 h. Also, the “total protein half-life in vivo” value reads like this: under setting [7], 6.29 ± 0.74 h; under setting [8], 11.3 ± 1.4 h; under setting [9], 6.16 ± 0.33 h; under setting [10], 12.6 ± 0.62 h; under setting [11], 5.78 ± 0.55 h; under setting [12], 12.5 ± 0.27 h.

The values above are taken from the supplement of paper PMC11246515.
